Experimental data from the Human Domainome abundance scans (Beltran et al. 2025).
± gives the uncertainty stated by the source.

B1: Connector enhancer of kinase suppressor of ras 2, residues 9 to 71; numbered along this chain, Q8WXI2 (parent)
chain: SKWSPSQVVDWMKGLDDCLQQYIKNFEREKISGDQLLRITHQELEDLGVSRIGHQELILEAVD

Variants of: B1
Experiment: abundance fitness (aPCA) (normalised: wild type 0, dead -1); higher = more abundant; growth selection in yeast, the domain comes from the species named
Settings: Homo sapiens

Row | Variant | abundance fitness
1 | Q42P | -0.254 ± 0.035
2 | Q42Y | -0.848 ± 0.1
3 | Q42M | -0.319 ± 0.05
4 | Q42F | -0.618 ± 0.077
5 | Q42N | -0.228 ± 0.044
6 | Q42V | -0.258 ± 0.024
7 | Q42W | -0.767 ± 0.047
8 | Q42K | 0.002 ± 0.051
9 | Q42G | -0.193 ± 0.028
10 | Q42S | -0.128 ± 0.021
11 | Q42I | -0.558 ± 0.086
12 | Q42D | -0.348 ± 0.046
13 | Q42L | -0.378 ± 0.025
14 | Q42C | -0.395 ± 0.042
15 | Q42E | -0.119 ± 0.034
16 | Q42T | -0.118 ± 0.028
17 | Q42R | -0.03 ± 0.024
18 | Q42A | -0.083 ± 0.017
19 | R38P | -0.681 ± 0.055
20 | R38C | -0.189 ± 0.034
21 | R38W | -0.549 ± 0.038
22 | R38G | -0.106 ± 0.026
23 | R38A | -0.031 ± 0.04
24 | R38I | -0.543 ± 0.046

Row | Variant | abundance fitness
25 | R38K | -0.002 ± 0.033
26 | R38H | -0.061 ± 0.043
27 | R38L | -0.377 ± 0.029
28 | R38Y | -0.446 ± 0.093
29 | R38E | -0.302 ± 0.053
30 | R38Q | -0.134 ± 0.039
31 | R38F | -0.416 ± 0.049
32 | R38D | -0.163 ± 0.05
33 | R38N | -0.098 ± 0.065
34 | R38M | -0.307 ± 0.05
35 | H41T | -0.031 ± 0.033
36 | H41K | 0.029 ± 0.034
37 | H41S | -0.007 ± 0.027
38 | H41P | -0.002 ± 0.033
39 | H41I | -0.184 ± 0.051
40 | H41M | -0.125 ± 0.047
41 | H41E | -0.076 ± 0.035
42 | H41V | -0.06 ± 0.03
43 | H41C | -0.157 ± 0.054
44 | H41D | -0.229 ± 0.052
45 | H41L | -0.234 ± 0.027
46 | H41G | -0.077 ± 0.025
47 | H41N | -0.097 ± 0.04
48 | H41Q | -0.037 ± 0.033

Row | Variant | abundance fitness
49 | H41Y | -0.075 ± 0.049
50 | L36W | -1.04 ± 0.12
51 | L36Y | -1.01 ± 0.086
52 | E45W | -0.193 ± 0.027
53 | E45P | -0.784 ± 0.052
54 | E45R | -0.017 ± 0.021
55 | E45C | -0.018 ± 0.031
56 | E45F | -0.033 ± 0.043
57 | E45H | -0.04 ± 0.022
58 | E45V | -0.118 ± 0.028
59 | E45T | -0.034 ± 0.03
60 | E45K | 0.021 ± 0.042
61 | E45L | -0.045 ± 0.026
62 | E45M | -0.066 ± 0.033
63 | E45G | -0.12 ± 0.029
64 | E45N | -0.015 ± 0.039
65 | E45I | -0.076 ± 0.035
66 | E45D | -0.167 ± 0.056
67 | E45Q | -0.007 ± 0.047
68 | E45S | -0.017 ± 0.02
69 | L44G | -0.804 ± 0.047
70 | L44Y | -0.9 ± 0.086
71 | L44H | -0.914 ± 0.089
72 | L44S | -0.784 ± 0.039

Row | Variant | abundance fitness
73 | L44R | -0.753 ± 0.036
74 | L44Q | -0.932 ± 0.12
75 | L44V | -0.79 ± 0.045
76 | L44D | -0.657 ± 0.065
77 | L44T | -0.781 ± 0.05
78 | L44P | -0.821 ± 0.073
79 | L44W | -0.964 ± 0.06
80 | L44A | -0.814 ± 0.046
81 | L44F | -0.722 ± 0.07
82 | L44N | -0.87 ± 0.091
83 | L44E | -0.82 ± 0.067
84 | L44I | -0.982 ± 0.23
85 | L44K | -0.791 ± 0.068
86 | L44M | -0.399 ± 0.05
87 | E43I | -0.46 ± 0.045
88 | E43S | -0.137 ± 0.026
89 | E43T | -0.151 ± 0.026
90 | E43R | 0.006 ± 0.023
91 | E43Q | 0.03 ± 0.037
92 | E43Y | -0.472 ± 0.044
93 | E43M | -0.165 ± 0.042
94 | E43V | -0.257 ± 0.036
95 | E43A | -0.143 ± 0.03
96 | E43F | -0.455 ± 0.042

Row | Variant | abundance fitness
97 | E43W | -0.498 ± 0.04
98 | E43K | -0.003 ± 0.055
99 | E43L | -0.41 ± 0.03
100 | E43N | -0.121 ± 0.035
101 | E43D | 0.011 ± 0.034
102 | E43G | -0.131 ± 0.034
103 | E43H | -0.179 ± 0.049
104 | E43C | -0.332 ± 0.036
105 | E43P | -0.987 ± 0.077
106 | T40F | -1.21 ± 0.37
107 | T40L | -1.07 ± 0.076
108 | T40A | -0.499 ± 0.034
109 | T40M | -0.907 ± 0.082
110 | T40W | -0.957 ± 0.07
111 | T40K | -0.186 ± 0.042
112 | T40G | -0.12 ± 0.027
113 | T40Q | -0.437 ± 0.038
114 | T40D | -0.327 ± 0.091
115 | T40N | -0.201 ± 0.052
116 | T40I | -0.893 ± 0.093
117 | T40H | -0.6 ± 0.076
118 | T40P | -0.784 ± 0.05
119 | T40C | -0.426 ± 0.04
120 | T40E | -0.548 ± 0.038

Row | Variant | abundance fitness
121 | T40V | -0.877 ± 0.04
122 | D46N | -0.006 ± 0.036
123 | D46I | -0.178 ± 0.044
124 | D46F | -0.097 ± 0.035
125 | D46A | -0.054 ± 0.031
126 | D46M | -0.042 ± 0.04
127 | D46E | -0.013 ± 0.032
128 | D46H | 0.008 ± 0.039
129 | D46G | -0.075 ± 0.026
130 | D46C | -0.188 ± 0.044
131 | D46K | 0.072 ± 0.035
132 | L37Q | -0.151 ± 0.038
133 | L37S | -0.072 ± 0.027
134 | L37W | -0.349 ± 0.045
135 | L37C | -0.108 ± 0.041
136 | L37P | -0.407 ± 0.041
137 | L37R | -0.145 ± 0.023
138 | L37V | -0.078 ± 0.025
139 | L37A | -0.073 ± 0.023
140 | L37Y | -0.28 ± 0.043
141 | L37D | -0.254 ± 0.031
142 | L37N | -0.154 ± 0.047
143 | L37K | -0.132 ± 0.047
144 | L37E | -0.193 ± 0.031

Row | Variant | abundance fitness
145 | L37F | -0.239 ± 0.052
146 | L37G | -0.168 ± 0.028
147 | L37T | -0.155 ± 0.037
148 | L37M | 0.012 ± 0.049
149 | L37H | -0.158 ± 0.071
150 | I39M | 0.009 ± 0.034
151 | I39A | -0.424 ± 0.04
152 | I39R | -0.717 ± 0.03
153 | I39V | -0.22 ± 0.03
154 | I39H | -0.65 ± 0.071
155 | I39C | -0.416 ± 0.052
156 | I39F | -0.254 ± 0.045
157 | I39Q | -0.653 ± 0.032
158 | I39S | -0.537 ± 0.037
159 | I39L | 0.01 ± 0.026
160 | I39N | -0.67 ± 0.053
161 | I39T | -0.455 ± 0.042
162 | I39W | -0.737 ± 0.04
163 | I39K | -0.576 ± 0.047
164 | I39E | -0.607 ± 0.048
165 | I39G | -0.699 ± 0.034
166 | I39D | -0.569 ± 0.075
167 | I39Y | -0.632 ± 0.064
